From patent US20130288364, “ENGINEERED KINETOCHORES AND USES THEREOF” (Whitehead Institute for Biomedical Research, published 2013) come the findings set out here.

In one series the target is CENP-T-ΔN/CENP-W complex (Homo sapiens, UniProt Q96BT3;Q5EE01 Q96BT3:288-561,Q5EE01:1-88). Briefly: EMSA; retains DNA binding activity. As to conditions: tags: 6xHis-CENP-T, untagged CENP-W; label: biotin. The procedure:
(§1) In vitro DNA binding was assessed by Electro Mobility Shift Assay (EMSA). 500 ng of the indicated protein was incubated for 10 minutes at room temperature in binding buffer (10 mM Tris pH 7.9, 150 mM KCl, 1 mM EDTA, 4 mM DTT. 50 ng of a 20 bp biotinylated double stranded DNA probe […] corresponding to bp 21-40 of the alpha satellite DNA sequence was then added, and incubated for a further 20 minutes. Samples were then run on a 4% non denaturing arylamide gel, semi-dry transferred to nitrocellulose membrane, and blots processed using the Chemiluminescent nucleic acid detection system (Thermo) according to manufacturers instructions. Biotinylated DNA probe with detected with HRP-coupled streptavidin (Thermo).
(A gel shift assay detects complexes by their altered migration in electrophoresis.)

The target of another series is CENP-T/CENP-W complex (Homo sapiens, UniProt Q96BT3;Q5EE01 Q96BT3:1-561,Q5EE01:1-88). The series can be described thus: EMSA; 10 mM Tris pH 7.9, 150 mM KCl, 1 mM EDTA, 4 mM DTT, room temperature; 500 ng protein, 50 ng probe. As to conditions: tags: 6xHis-CENP-T (full length), untagged CENP-W, co-expressed from pST39 in bacteria; Gene ID 80152 / 387103; label: biotin. The procedure:
as §1

Sequence of CENP-T/CENP-W complex (Q96BT3 whole entry, chain 1 of 2): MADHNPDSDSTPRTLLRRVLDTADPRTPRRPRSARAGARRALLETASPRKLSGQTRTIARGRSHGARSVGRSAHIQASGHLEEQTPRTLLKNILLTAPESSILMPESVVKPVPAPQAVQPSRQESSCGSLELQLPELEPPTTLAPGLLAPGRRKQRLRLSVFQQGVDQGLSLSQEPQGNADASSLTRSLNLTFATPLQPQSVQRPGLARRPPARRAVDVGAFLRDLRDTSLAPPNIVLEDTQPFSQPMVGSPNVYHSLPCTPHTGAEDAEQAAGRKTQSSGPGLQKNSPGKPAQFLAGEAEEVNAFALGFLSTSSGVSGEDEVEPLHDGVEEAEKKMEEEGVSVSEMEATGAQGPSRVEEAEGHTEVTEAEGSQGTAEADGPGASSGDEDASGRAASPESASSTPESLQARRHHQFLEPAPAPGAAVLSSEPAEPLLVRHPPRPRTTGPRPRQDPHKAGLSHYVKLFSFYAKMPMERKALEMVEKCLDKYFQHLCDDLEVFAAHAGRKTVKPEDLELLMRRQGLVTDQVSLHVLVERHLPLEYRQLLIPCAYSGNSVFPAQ
Sequence of CENP-T/CENP-W complex (Q5EE01 whole entry, chain 2 of 2): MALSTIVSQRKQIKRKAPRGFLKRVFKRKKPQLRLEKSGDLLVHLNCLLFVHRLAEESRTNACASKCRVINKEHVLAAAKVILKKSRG
Sequence of CENP-T-ΔN/CENP-W complex (Q96BT3 288-561, stated change not applied, chain 1 of 2): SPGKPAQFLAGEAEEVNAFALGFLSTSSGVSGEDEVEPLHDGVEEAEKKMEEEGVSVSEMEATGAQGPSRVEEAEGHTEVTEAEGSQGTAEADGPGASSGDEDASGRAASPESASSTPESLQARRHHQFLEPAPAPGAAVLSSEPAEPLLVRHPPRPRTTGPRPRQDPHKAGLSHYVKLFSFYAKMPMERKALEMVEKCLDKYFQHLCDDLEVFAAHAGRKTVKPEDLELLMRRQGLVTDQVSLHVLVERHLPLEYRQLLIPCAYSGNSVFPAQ
Sequence of CENP-T-ΔN/CENP-W complex (Q5EE01 whole entry, stated change not applied, chain 2 of 2): as the sequence (Q5EE01 whole entry, chain 2 of 2) above

B1: alpha-satellite 20 bp probe (bp 21-40) (dsDNA)
DNA 1: CCTTTGAGGCCTTCGTTGGA
DNA 2: TCCAACGAAGGCCTCAAAGG
For B1, the binding result in the series with CENP-T-ΔN/CENP-W complex and with CENP-T/CENP-W complex was “binds” each time.
